Results reported in PMC4039619.
Where two headings read alike, the source gives them in different places.

Legend:
[1] = target: insulin from porcine pancreas (porcine); assay: ELISA
[2] = target: human proinsulin (human); assay: ELISA
[3] = target: recombinant human IGF-II (human); assay: ELISA
[4] = target: insulin from porcine pancreas (porcine)

Chain of human recombinant decorin protein core (P07585 31-359): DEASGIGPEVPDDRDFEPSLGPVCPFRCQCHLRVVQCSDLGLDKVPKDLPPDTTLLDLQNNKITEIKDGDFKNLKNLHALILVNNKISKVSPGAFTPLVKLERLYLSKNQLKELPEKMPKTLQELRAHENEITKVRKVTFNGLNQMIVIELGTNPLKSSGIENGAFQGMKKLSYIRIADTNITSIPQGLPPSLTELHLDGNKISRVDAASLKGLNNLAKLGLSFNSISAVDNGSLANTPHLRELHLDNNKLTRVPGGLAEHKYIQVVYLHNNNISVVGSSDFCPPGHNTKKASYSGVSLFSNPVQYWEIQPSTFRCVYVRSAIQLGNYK
Chain of insulin from porcine pancreas (porcine) (P01315 25-54, chain 1 of 2): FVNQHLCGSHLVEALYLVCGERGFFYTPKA
Chain of insulin from porcine pancreas (porcine) (P01315 88-108, chain 2 of 2): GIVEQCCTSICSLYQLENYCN
Chain of recombinant human IGF-II (human) (P01344 25-91): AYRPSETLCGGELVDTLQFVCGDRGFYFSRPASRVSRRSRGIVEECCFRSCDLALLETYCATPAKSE
Chain of decorin proteoglycan (P07585 31-359): as the sequence (P07585 31-359) above

| Substance | Kd [1] [nM] | Kd [2] [nM] | Kd [3] [nM] | Kd [4] [nM] |
| --- | --- | --- | --- | --- |
| human recombinant decorin protein core (from UniProt P07585 31-359) (natural protein) | 3.1 | 9.3 | 1.5 | – |
| decorin proteoglycan (from UniProt P07585 31-359) (natural protein) | – | – | – | 13.4 |
